Experimental data as given in publication PMC8012654.

Molecular target: recombinant GST-αII spectrin peptide, codons 891-1231 (repeats 9 and 10), R1098Q (mouse) (UniProt P16546)
Experiment: SPR; BIAcore T200, CM5 chip; GST-spectrin peptides captured by their GST tag on amine-coupled goat anti-GST antibody to 1,000 RU; CaM 20 nM to 500 nM flowed in HBS running buffer with 2 mM CaCl2; 25 °C, 20 µl/min; global fit, 1:1 Langmuir model with mass transport step; KD = kd/ka

reduction in affinity for CaM relative to the WT peptide: 19%
Substance: purified bovine brain calmodulin (CaM) (from UniProt P62157 1-149) (natural protein)
